Four molecules from article PMC5147862 (PLoS ONE, 2016) can be followed below.

Sequences and labels used below:
B1: RRAS1, mGppNHp-bound (natural protein, human, UniProt P10301 1-218, looked up)
chain: MSSGAASGTGRGRPRGGGPGPGDPPPSETHKLVVVGGGGVGKSALTIQFIQSYFVSDYDPTIEDSYTKICSVDGIPARLDILDTAGQEEFGAMREQYMRAGHGFLLVFAINDRQSFNEVGKLFTQILRVKDRDDFPVVLVGNKADLESQRQVPRSEASAFGASHHVAYFEASAKLRLNVDEAFEQLVRAVRKYQEQELPPSPPSAPRKKGGGCPCVLL
notes: human RRAS1 (R-Ras); Loaded with mGppNHp; That the RAS proteins are the ones made with pGEX is surmised
B3: RRAS2 (or TC21), mGppNHp-bound (natural protein, human, UniProt P62070 1-204, looked up)
chain: MAAAGWRDGSGQEKYRLVVVGGGGVGKSALTIQFIQSYFVTDYDPTIEDSYTKQCVIDDRAARLDILDTAGQEEFGAMREQYMRTGEGFLLVFSVTDRGSFEEIYKFQRQILRVKDRDEFPMILIGNKADLDHQRQVTQEEGQQLARQLKVTYMEASAKIRMNVDQAFHELVRVIRKFQEQECPPSPEPTRKEKDKKGCHCVIF
notes: human RRAS2 (TC21); Loaded with mGppNHp; That the RAS proteins are the ones made with pGEX is surmised; also called RRAS2-mGppNHp

Common to all, as to experiment: fluorescence polarisation; MBP-tagged effector domain (0.05-100 μM) titrated to 1 μM RAS-mGppNHp; 50 mM Tris/HCl pH 7.5, 100 mM NaCl, 5 mM MgCl2, 3 mM dithiothreitol, 25°C; quadratic ligand binding equation
Conditions in all cases: both partners purified

Assay [1] addresses T1, RAS binding (RB) domain of PI3Kα, MBP fusion (human, UniProt P42336 169-301).
T1 construct: human PI3Kα, RB domain, aa 169-301; also called PI3Kα-RB

In another assay the target is T2, HRAS, mGppNHp-bound (human, UniProt P01112 1-189).
T2 construct: human HRAS; Loaded with the fluorescent non-hydrolysable GTP analog mant-GppNHp (mGppNHp); That the RAS proteins are the ones made with pGEX is surmised

The next assay concerns the target T3, NRAS, mGppNHp-bound (human, UniProt P01111 1-189).
T3 construct: human NRAS; Loaded with mGppNHp; That the RAS proteins are the ones made with pGEX is surmised

The target of the assay “RRAS1, mGppNHp-bound” is B1.
The target of assay [2] is B3.

T1 sequence (P42336 169-301): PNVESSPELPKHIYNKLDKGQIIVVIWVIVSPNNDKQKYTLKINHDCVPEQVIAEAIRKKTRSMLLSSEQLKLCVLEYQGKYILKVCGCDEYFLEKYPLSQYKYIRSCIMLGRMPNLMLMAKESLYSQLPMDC
T3 sequence (P01111 whole entry): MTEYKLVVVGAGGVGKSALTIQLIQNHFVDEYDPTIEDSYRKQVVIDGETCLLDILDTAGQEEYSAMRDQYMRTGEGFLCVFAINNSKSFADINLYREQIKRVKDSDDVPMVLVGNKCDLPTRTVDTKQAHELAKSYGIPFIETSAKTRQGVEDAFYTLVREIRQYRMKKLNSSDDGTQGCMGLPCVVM

B1 returned a Kd in assay [1] of 11 µM.

B2: RAS association (RA) domain of RASSF5, MBP fusion (domain or fragment, human, UniProt Q8WWW0 200-358, looked up)
chain: EETQRPPTLQEIKQKIDSYNTREKNCLGMKLSEDGTYTGFIKVHLKLRRPVTVPAGIRPQSIYDAIKEVNLAATTDKRTSFYLPLDAIKQLHISSTTTVSEVIQGLLKKFMVVDNPQKFALFKRIHKDGQVLFQKLSIADRPLYLRLLAGPDTEVLSFV
notes: human RASSF5, RA domain, aa 200-358; also called RASSF5-RA
As to B2, the Kd with HRAS, mGppNHp-bound is 238 nM; with NRAS, mGppNHp-bound, 442 nM; with RRAS1, mGppNHp-bound, 11.5 µM; in assay [2], 10 µM.
For the molecule B3, the Kd in assay [1] stood at 18.1 µM.

B4: RAS association (RA) domain of PLCε, MBP fusion (domain or fragment, human, UniProt Q9P212 2130-2240, looked up)
chain: LSSEEESFFVQVHDVSPEQPRTVIKAPRVSTAQDVIQQTLCKAKYSYSILSNPNPSDYVLLEEVVKDTTNKKTTTPKSSQRVLLDQECVFQAQSKWKGAGKFILKLKEQVQ
notes: human PLCε, RA domain (RA2), aa 2130-2240; also called PLCε-RA2
Turning to B4, the Kd with RRAS1, mGppNHp-bound stood at 114 µM; in assay [2], 145 µM.
